In IntAct's records for PubMed 16595635:

Tests used:
tnfl6_human FASLG [1] = molecular target: tnfl6_human FASLG (UniProt P48023)
tnfl6_human FASLG [2] = molecular target: tnfl6_human FASLG (UniProt P48023); remark: listed apart in the source
tnfl6_human FASLG [3] = molecular target: tnfl6_human FASLG (UniProt P48023); remark: listed apart in the source

UniProt P48023, sequence (P48023 whole entry): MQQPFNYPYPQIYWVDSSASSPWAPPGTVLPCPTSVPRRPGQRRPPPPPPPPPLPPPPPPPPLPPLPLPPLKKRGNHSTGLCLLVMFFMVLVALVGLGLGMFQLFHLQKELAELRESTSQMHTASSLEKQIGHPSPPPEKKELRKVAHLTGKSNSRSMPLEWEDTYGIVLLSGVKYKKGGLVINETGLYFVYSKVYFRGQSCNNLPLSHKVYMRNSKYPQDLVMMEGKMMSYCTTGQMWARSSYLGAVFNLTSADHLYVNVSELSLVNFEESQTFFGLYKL

| Substance | effect of a mutation on the interaction (tnfl6_human FASLG [1]) | effect of a mutation on the interaction (tnfl6_human FASLG [2]) | effect of a mutation on the interaction (tnfl6_human FASLG [3]) |
| --- | --- | --- | --- |
| SH2/SH3 adapter protein NCK1 (Homo sapiens) (from UniProt P16333-1) W38K;W143K;W229K | disrupting interaction strength | disrupting interaction strength | – |
| SH2/SH3 adapter protein NCK1 (Homo sapiens) (from UniProt P16333-1) W143K | – | – | disrupting interaction strength |
| SH2/SH3 adapter protein NCK1 (Homo sapiens) (from UniProt P16333-1) W229K | – | – | disrupting interaction strength |
